Among the data in article PMC5883314, “Soluble expression of an amebic cysteine protease in the cytoplasm of Escherichia coli SHuffle Express cells and purification of active enzyme” (BMC Biotechnology, 2018) are Km and IC50 values, retold here.

Series [1] relates to Cc1cc(=O)oc2cc(NC(=O)[C@H](CCCNC(=N)N)NC(=O)[C@H](CCCNC(=N)N)NC(=O)OCc3ccccc3)ccc12. The series is described as follows: purified protein.
For series [2], the system named is N=C(N)NCCC[C@H](NC(=O)OCc1ccccc1)C(=O)N[C@@H](CCCNC(=N)N)C(=O)Nc1ccc([N+](=O)[O-])cc1. The series is described as follows: purified protein.
The target in series [3] is T1, EhCP1 (Cysteine Protease 1 of Entamoeba histolytica) (Entamoeba histolytica, UniProt Q01957).
T1 construct: gene CP1; pro-mature polypeptide (Ile14 to Leu315), N-terminal hexahistidine tag
T1 sequence (Q01957 14-315): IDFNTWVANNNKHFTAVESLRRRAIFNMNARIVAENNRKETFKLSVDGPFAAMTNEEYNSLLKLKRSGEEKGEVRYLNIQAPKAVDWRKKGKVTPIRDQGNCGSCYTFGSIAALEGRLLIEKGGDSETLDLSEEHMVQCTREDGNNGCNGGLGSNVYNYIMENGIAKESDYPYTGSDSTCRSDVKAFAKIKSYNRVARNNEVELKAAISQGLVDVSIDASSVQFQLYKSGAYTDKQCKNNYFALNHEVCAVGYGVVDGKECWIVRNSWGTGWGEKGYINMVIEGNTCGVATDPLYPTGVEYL
In words: inhibition of purified recombinant enzyme, hydrolysis of Z-Arg-Arg-pNA and Z-Arg-Arg-AMC. Type of series: biochemical.

Broadly, the Km is the concentration of substrate that gives half-maximal velocity. For the compound “EhCP1 (Cysteine Protease 1 of Entamoeba histolytica) (Entamoeba histolytica HM-1:IMSS)”, the figures for the Km in series [1] and in series [2] were 6.7 µM and 57.1 µM, respectively. The IC50 is the concentration that inhibits the measured activity by half. Regarding `CC(C)C[C@H](NC(=O)[C@H]1O[C@@H]1C(=O)O)C(=O)NCCCCN=C(N)N` [E-64, L-trans-3-carboxyoxiran-2-carbonyl-L-leucylagmatine], the IC50 in series [3] was 1000 nM.
